Consider one molecule from patent US20260116958A1 (University of California, published 2026).

The target of test [1] is T1, active BoNT/G holotoxin (Clostridium botulinum, UniProt Q60393 2-1297).
T1 sequence: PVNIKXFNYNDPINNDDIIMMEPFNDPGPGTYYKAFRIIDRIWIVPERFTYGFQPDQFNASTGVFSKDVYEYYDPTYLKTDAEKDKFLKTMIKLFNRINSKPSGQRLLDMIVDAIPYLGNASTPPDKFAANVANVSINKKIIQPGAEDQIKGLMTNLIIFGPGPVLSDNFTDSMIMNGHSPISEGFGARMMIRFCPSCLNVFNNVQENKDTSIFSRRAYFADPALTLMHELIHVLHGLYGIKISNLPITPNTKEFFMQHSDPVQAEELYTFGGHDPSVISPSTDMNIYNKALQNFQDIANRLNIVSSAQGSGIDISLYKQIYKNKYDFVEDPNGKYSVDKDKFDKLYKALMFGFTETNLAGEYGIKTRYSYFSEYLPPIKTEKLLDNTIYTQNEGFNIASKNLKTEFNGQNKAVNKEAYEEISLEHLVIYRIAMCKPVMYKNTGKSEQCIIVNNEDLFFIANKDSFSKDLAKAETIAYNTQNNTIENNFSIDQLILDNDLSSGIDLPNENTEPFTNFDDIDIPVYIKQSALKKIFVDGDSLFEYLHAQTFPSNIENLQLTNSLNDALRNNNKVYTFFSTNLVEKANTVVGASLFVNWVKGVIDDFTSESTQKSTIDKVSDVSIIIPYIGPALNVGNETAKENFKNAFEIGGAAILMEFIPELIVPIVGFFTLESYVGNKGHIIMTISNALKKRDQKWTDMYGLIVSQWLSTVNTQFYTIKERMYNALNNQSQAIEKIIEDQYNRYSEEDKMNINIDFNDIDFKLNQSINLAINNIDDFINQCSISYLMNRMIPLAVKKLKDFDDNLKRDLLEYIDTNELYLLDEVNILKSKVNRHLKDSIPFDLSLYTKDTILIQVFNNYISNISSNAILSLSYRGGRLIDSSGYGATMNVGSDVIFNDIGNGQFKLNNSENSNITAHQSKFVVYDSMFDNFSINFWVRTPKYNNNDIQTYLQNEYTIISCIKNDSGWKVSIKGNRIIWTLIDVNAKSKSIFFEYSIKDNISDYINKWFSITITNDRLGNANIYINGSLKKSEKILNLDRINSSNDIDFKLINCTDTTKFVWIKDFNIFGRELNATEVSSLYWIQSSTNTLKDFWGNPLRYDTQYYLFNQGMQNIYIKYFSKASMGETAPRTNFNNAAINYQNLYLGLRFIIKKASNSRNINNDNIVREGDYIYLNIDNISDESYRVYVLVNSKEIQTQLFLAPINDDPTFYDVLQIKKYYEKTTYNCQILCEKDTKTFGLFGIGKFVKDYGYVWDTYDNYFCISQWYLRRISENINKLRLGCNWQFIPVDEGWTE
Briefly: KinExA, IgG; 'affinity to the active BoNT/G holotoxin'. For orientation: A kinetic exclusion assay measures how much of one partner remains free in solution.

Test [2] addresses T1, active BoNT/G holotoxin. Description: KinExA, IgG.

One may read the Kd as the equilibrium constant for the complex coming apart. A higher Kd goes with weaker binding.

B1: Hu6G7.2 IgG (antibody, V domains shown)
VH: QVQLVQSGAEVKKPGASVKVSCKASDYSFTDYNIYWVRQTPGQGLEWIGYIDPYNGGTSYNQKFKGRATLTVDKSISTAYMELSRLRSDDTAVYYCALYGYDPDYTEYWGQGTTLTVSS
VL: DIVLTQSPASMAVSPGQRVTITCSASSSVSYLHWFQQKPGQSPKLWIYSTSNLASGVPARFSGSGSGTDYTLTINPMEAEDTATYYCQQRSSYPYTFGQGTKLEIKR
As for B1, the Kd with active BoNT/G holotoxin [1] and in the test with active BoNT/G holotoxin [2] was 0.051 nM throughout.
